Results reported in the supplement of paper PMC10065799, “High-throughput profiling of sequence recognition by tyrosine kinases and SH2 domains using bacterial peptide display” (eLife, 2023).

Assays:
[1] = system: AncSZ; assay: phosphorylation enrichment, bacterial display (enrichment ratio); higher = better substrate or ligand; peptides without Tyr show the background
[2] = biological target: EPHB1 (UniProt P54762); assay: as above
[3] = biological target: EPHB2 (UniProt P29323); assay: as above
[4] = biological target: FGFR1 (UniProt P11362); assay: as above
[5] = biological target: FGFR3 (UniProt P22607); assay: as above
[6] = system: Fer (mouse); assay: as above
[7] = biological target: Fes (UniProt P07332); assay: as above
[8] = biological target: Fyn (UniProt P06241); assay: as above
[9] = biological target: Hck (UniProt P08631); assay: as above
[10] = biological target: Jak2 (UniProt O60674); assay: as above
[11] = biological target: MERTK (UniProt Q12866); assay: as above
[12] = system: c-Abl (mouse); assay: as above
[13] = system: c-Src; assay: as above
[14] = biological target: Grb2 SH2 (UniProt P62993); assay: SH2 binding enrichment of the phosphorylated peptide, bacterial display (enrichment ratio); higher = better substrate or ligand; peptides without Tyr show the background
[15] = biological target: SHP2-C SH2; assay: as above
[16] = biological target: c-Src SH2; assay: as above
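Throughout, for SH2 binding enrichment of the phosphorylated peptide, bacterial display: peptide library displayed on the E. coli surface as eCPX fusions, selected cells deep-sequenced, score is each peptide's frequency after selection divided by its frequency in the input.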
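Throughout, for phosphorylation enrichment, bacterial display: 11-residue human phosphosite peptides and single-mutation variants displayed on the E. coli surface, counted by deep sequencing, each peptide's frequency after selection divided by its frequency in the unselected input library; frequency after pTyr selection over input frequency; kinase dosed for 20-30% of maximal phosphorylation in three min.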

Chain of Hck (P08631 whole entry, looked up): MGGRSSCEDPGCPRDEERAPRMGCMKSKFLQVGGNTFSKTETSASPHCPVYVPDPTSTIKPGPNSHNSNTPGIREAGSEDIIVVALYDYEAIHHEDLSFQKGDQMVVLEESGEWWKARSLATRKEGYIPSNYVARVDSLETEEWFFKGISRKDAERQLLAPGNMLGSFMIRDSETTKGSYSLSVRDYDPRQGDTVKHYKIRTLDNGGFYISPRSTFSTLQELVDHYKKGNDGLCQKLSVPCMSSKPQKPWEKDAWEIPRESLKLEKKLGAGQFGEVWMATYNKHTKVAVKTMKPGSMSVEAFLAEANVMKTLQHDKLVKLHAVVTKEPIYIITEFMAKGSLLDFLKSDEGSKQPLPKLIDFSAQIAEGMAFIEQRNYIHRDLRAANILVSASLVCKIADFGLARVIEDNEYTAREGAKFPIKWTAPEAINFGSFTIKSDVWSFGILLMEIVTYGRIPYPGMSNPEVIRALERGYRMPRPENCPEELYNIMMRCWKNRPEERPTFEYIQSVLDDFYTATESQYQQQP
Chain of Fes (P07332 whole entry, looked up): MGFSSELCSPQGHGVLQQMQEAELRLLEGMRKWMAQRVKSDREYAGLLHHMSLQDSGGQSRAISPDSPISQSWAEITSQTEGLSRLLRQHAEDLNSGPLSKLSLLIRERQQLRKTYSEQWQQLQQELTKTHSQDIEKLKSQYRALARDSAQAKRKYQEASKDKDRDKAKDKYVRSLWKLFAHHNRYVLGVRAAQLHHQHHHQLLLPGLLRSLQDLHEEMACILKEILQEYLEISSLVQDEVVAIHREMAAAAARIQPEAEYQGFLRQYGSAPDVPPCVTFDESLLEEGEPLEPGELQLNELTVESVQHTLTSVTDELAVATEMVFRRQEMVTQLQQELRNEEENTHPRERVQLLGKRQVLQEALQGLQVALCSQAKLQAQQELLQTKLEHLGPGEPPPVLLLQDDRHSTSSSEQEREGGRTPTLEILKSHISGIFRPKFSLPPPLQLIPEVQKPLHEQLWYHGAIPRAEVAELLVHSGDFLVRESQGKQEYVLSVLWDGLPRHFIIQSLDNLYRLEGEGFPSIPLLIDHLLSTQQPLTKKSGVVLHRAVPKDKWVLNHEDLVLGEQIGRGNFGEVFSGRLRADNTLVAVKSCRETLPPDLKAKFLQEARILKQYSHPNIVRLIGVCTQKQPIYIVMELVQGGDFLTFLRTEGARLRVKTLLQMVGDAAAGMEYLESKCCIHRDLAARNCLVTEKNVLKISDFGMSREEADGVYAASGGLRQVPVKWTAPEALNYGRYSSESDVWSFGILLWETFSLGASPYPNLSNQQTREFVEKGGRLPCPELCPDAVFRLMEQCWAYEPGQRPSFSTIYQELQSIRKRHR
Chain of FGFR3 (P22607 whole entry, looked up): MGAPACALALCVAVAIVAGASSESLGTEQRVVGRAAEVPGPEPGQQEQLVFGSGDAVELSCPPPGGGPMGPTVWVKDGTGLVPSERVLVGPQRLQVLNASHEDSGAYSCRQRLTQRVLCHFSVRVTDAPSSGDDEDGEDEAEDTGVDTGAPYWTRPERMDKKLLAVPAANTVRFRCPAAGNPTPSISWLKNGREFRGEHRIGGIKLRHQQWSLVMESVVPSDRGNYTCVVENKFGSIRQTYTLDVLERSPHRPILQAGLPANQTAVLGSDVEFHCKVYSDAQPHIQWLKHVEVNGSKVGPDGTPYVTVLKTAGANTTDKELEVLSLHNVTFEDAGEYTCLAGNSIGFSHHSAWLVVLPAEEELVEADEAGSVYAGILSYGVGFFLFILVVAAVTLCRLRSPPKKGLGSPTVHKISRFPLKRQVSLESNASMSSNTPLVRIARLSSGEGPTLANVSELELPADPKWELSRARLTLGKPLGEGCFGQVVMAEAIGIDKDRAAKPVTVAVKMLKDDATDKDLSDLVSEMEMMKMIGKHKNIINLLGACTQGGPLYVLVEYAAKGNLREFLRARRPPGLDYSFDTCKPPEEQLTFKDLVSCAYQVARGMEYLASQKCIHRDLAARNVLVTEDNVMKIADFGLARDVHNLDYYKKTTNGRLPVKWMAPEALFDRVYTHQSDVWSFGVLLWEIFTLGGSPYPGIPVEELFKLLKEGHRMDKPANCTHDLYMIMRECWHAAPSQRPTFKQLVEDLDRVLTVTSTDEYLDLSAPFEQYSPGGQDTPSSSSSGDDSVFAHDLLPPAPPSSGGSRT
Chain of Jak2 (O60674 whole entry, looked up): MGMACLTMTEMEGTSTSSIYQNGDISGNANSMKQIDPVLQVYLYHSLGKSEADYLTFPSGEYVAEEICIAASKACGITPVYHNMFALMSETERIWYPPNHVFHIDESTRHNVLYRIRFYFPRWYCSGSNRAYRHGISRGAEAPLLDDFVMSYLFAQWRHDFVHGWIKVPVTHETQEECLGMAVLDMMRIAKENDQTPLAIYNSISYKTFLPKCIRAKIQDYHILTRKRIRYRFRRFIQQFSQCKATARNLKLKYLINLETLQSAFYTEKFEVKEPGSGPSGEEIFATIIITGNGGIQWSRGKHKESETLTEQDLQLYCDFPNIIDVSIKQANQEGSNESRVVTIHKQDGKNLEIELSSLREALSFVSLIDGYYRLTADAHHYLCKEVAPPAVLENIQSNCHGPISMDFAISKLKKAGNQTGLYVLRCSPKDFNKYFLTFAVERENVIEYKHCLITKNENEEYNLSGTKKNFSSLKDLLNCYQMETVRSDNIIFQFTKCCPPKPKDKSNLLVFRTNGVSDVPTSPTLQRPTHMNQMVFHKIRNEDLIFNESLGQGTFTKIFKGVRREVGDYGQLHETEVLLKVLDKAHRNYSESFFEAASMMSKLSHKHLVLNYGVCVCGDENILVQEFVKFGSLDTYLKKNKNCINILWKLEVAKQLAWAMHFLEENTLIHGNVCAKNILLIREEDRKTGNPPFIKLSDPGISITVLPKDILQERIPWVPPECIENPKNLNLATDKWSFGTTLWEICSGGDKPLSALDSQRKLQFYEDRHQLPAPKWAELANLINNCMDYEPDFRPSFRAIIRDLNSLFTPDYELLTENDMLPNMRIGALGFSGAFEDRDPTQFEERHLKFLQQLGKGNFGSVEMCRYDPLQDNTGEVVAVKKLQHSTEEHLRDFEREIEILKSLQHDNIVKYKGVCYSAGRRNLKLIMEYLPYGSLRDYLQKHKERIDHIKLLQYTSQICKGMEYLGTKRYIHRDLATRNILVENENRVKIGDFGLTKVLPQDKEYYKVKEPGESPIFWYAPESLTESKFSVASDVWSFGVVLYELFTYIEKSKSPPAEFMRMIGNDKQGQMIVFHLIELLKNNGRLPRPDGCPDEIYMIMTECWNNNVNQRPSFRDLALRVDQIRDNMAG
Chain of Fyn (P06241 whole entry, looked up): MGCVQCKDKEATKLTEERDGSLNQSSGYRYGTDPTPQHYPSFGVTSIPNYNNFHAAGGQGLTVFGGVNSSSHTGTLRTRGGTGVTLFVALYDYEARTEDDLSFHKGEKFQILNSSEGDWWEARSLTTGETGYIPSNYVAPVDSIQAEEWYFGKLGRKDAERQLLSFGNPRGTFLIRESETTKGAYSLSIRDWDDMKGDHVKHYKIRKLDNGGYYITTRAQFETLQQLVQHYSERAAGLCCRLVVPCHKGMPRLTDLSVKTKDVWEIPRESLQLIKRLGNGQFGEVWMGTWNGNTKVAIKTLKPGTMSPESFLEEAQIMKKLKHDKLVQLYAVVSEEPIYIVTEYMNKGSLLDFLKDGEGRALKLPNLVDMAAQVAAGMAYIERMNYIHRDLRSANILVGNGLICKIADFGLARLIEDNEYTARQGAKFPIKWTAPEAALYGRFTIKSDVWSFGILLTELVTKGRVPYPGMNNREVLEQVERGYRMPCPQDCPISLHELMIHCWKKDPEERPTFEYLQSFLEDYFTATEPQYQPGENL
Chain of EPHB2 (P29323 whole entry, looked up): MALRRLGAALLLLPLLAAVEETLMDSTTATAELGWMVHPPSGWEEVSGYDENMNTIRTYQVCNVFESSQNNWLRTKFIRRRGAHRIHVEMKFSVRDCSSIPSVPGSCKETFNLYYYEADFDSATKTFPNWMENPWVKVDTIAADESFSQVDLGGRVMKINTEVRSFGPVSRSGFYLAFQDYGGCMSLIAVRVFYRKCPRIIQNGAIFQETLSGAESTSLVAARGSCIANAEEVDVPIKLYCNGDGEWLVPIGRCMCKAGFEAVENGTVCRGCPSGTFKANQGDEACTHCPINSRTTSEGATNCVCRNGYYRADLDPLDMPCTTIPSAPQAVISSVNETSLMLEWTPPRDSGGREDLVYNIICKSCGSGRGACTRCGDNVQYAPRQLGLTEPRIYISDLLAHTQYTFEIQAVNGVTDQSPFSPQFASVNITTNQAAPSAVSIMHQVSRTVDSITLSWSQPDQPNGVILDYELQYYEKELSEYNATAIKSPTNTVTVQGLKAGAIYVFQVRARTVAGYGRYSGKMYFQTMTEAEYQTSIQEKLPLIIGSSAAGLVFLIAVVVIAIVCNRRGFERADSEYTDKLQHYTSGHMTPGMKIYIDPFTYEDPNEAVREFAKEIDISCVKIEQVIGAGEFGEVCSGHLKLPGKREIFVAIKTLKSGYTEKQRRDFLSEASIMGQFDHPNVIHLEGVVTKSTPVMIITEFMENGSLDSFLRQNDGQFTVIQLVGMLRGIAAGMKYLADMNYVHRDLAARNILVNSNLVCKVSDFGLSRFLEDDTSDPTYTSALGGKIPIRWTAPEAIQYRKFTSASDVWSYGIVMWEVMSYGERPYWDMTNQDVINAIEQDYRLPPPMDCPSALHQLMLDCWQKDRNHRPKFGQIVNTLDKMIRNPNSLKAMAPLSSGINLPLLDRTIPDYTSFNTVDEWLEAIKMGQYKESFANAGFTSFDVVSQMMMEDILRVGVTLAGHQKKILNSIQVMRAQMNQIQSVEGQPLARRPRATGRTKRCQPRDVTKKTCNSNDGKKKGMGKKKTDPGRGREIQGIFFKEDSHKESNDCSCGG

SH2 binding enrichment [14] | SH2 binding enrichment [15] | SH2 binding enrichment [16] | Sequence | phosphorylation enrichment [1] | phosphorylation enrichment [2] | phosphorylation enrichment [3] | phosphorylation enrichment [4] | phosphorylation enrichment [5] | phosphorylation enrichment [6] | phosphorylation enrichment [7] | phosphorylation enrichment [8] | phosphorylation enrichment [9] | phosphorylation enrichment [10] | phosphorylation enrichment [11] | phosphorylation enrichment [12] | phosphorylation enrichment [13]
0.813 | 1.09 | 0.554 | TSKLNYLDPRI [TOP1_Y723] | 0.534 | 4.39 | 1.7 | 0.919 | 0.585 | 0.241 | 0.599 | 0.371 | 0.3 | 0.506 | 0.359 | 0.407 | 0.405
0.742 | 0.65 | 0.513 | ISSLRYKLLEE [TRPC6_Y896_E897K] | 0.786 | 0.514 | 0.476 | 0.426 | 0.549 | 0.38 | 0.986 | 0.503 | 0.47 | 0.64 | 0.347 | 0.603 | 0.407
0.829 | 0.814 | 0.783 | NPETCYQKLKK [TK2_Y190_R192K] | 0.906 | 0.583 | 0.451 | 0.444 | 0.774 | 0.509 | 1.07 | 0.428 | 0.583 | 0.921 | 0.386 | 0.765 | 0.425
0.634 | 0.851 | 2.88 | GAVGHYVLAER [HFE_Y342_M339V] | 0.865 | 0.395 | 0.415 | 0.449 | 1.23 | 0.363 | 0.711 | 0.47 | 0.454 | 0.453 | 0.573 | 0.46 | 0.503
0.768 | 0.759 | 0.556 | FDDIAYIRKNL [PIK3CA_Y1021_T1025N] | 0.864 | 0.409 | 0.506 | 0.432 | 0.56 | 0.361 | 0.852 | 0.403 | 0.5 | 0.494 | 0.416 | 0.483 | 0.379
1.11 | 0.889 | 0.633 | YRAPGYREVVI [TNS2_Y673] | 0.587 | 0.445 | 0.43 | 0.52 | 0.443 | 0.432 | 0.634 | 0.474 | 0.439 | 0.509 | 0.403 | 2.11 | 0.419
0.67 | 0.775 | 0.445 | ETCLAYMEKRI [TEKT1_Y118_R119M] | 1.2 | 0.591 | 0.617 | 0.48 | 0.814 | 0.691 | 1.13 | 0.517 | 0.56 | 1.17 | 0.406 | 0.818 | 0.511
0.808 | 0.443 | 0.442 | MDDKEYFSVHN [MET_Y1234_Y1230D_YF] | 1.43 | 0.492 | 0.587 | 0.743 | 0.919 | 0.434 | 1.03 | 0.411 | 0.452 | 1.02 | 0.447 | 0.757 | 0.435
0.827 | 0.694 | 1.83 | SVVVPYETPEV [TP53_Y220_P222T] | 1.42 | 0.715 | 0.862 | 0.569 | 0.774 | 0.639 | 1.41 | 0.541 | 0.56 | 1.14 | 0.556 | 0.849 | 0.505

More lines, now with the values behind:

Sequence | SH2 binding enrichment [14] | SH2 binding enrichment [15] | SH2 binding enrichment [16] | phosphorylation enrichment [1] | phosphorylation enrichment [2] | phosphorylation enrichment [3] | phosphorylation enrichment [4] | phosphorylation enrichment [5] | phosphorylation enrichment [6] | phosphorylation enrichment [7] | phosphorylation enrichment [8] | phosphorylation enrichment [9] | phosphorylation enrichment [10] | phosphorylation enrichment [11] | phosphorylation enrichment [12] | phosphorylation enrichment [13]
TRNVRYLTLDI [AKR1C2_Y305_N300T] | 0.985 | 6.49 | 1.73 | 0.633 | 0.787 | 0.521 | 0.421 | 0.634 | 0.429 | 0.887 | 0.407 | 0.487 | 0.684 | 0.372 | 0.557 | 0.384
IFLADYRIMEG [ALOX12B_Y318_YF] | 1.16 | 1.12 | 0.987 | 0.689 | 0.454 | 0.523 | 0.814 | 0.787 | 0.453 | 0.984 | 0.408 | 0.421 | 0.782 | 0.478 | 0.641 | 0.528
TDLAFYLVCKG [ASL_Y376_R379C_YF] | 0.732 | 0.461 | 0.388 | 1.31 | 0.79 | 0.593 | 0.551 | 0.94 | 0.647 | 1.7 | 0.411 | 0.547 | 1.57 | 0.446 | 1.14 | 0.48
STQAHYRLSAF [ADAMTS9_Y100_S96T] | 0.759 | 0.859 | 0.513 | 0.582 | 0.395 | 0.381 | 0.44 | 0.536 | 0.386 | 0.63 | 0.461 | 0.456 | 0.487 | 0.409 | 0.427 | 0.323
TSAEGYQDVRD [ABLIM1_Y439_P434T] | 0.909 | 0.779 | 4.85 | 1.17 | 0.73 | 0.774 | 0.77 | 0.659 | 0.551 | 1.36 | 0.679 | 0.691 | 1.16 | 0.517 | 0.766 | 0.602
KTDVRYRSLGG [DYSF_Y1858_H1857R] | 0.898 | 0.634 | 0.383 | 0.446 | 0.333 | 0.312 | 0.372 | 0.472 | 0.414 | 0.472 | 0.35 | 0.314 | 0.553 | 0.346 | 0.473 | 0.368
